The supplement of paper PMC10567573

B1: STK38L (parent)
chain: FLPGGDMMTLLMKKDTLTEEETQF
B2: NETO1 (parent)
chain: KTSLLDQLTNTSGTVIGVTSCIVI

Variants of: B1
Test: protein stability index of a GFP-peptide fusion (GPS, HEK-293T) (PSI 1-6); higher = more stable
Conditions: c terminus: a fixed tail appended
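Also: lentivirally expressed fusions sorted by FACS into six bins by GFP to DsRed ratio, PSI derived from sequencing read proportions per bin multiplied by bin number.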

Protein stability index of substitutions, site by site:
G4: A 2.78 | S 2.61 | W 1.82 | K 3.27 | Q 3.36 | V 3.39 | L 2.42 | N 2.76 | H 3.29 | Y 2.29 | C 3.09 | R 3.26 | P 3.95 | F 2.41 | T 3.34 | M 2.35 | D 3.84 | I 2.35 | E 3.57
F1: A 4.91 | M 4.39 | Y 2.33 | H 4.48 | V 4.67 | R 4.39 | I 3.88 | T 4.68 | P 4.76 | D 5.25 | S 4.29 | N 4.66 | Q 4.79 | W 3.49 | C 4.39 | K 4.54 | L 3.71 | G 4.51 | E 4.92
M7: P 3.67 | Y 2.81 | E 4.77 | N 3.05 | S 3.9 | V 2.85 | F 2.23 | C 2.63 | I 2.08 | T 3.87 | D 4.85 | G 3.16 | R 3.61 | A 4.11 | Q 3.65 | K 3.55 | L 2.43 | H 3.72
P3: K 2.91 | W 2.55 | G 2.96 | L 1.86 | S 1.4 | R 2.76 | D 2.12 | M 2.18 | C 2.17 | V 2.08 | N 1.89 | F 2.22 | Q 2.31 | E 2.32 | H 1.98 | Y 1.68 | I 2.31 | A 1.66 | T 2.23
D6: W 1.4 | Q 1.96 | P 1.87 | M 2.54 | N 2.69 | K 1.98 | I 1.85 | Y 2.42 | F 1.96 | A 1.7 | S 2.07 | H 1.72 | E 2.02 | T 1.82 | L 2.71 | C 2.24 | V 2.33 | R 2.18
G5: F 2.84 | P 2.94 | T 3.44 | M 3.13 | A 2.63 | D 4.23 | S 3.21 | K 4.21 | C 2.94 | E 3.72 | Y 2.63 | I 2.63 | R 3 | Q 2.72 | L 3.01 | H 2.75 | V 2.79 | N 3.13
L2: W 3 | T 2.54 | C 1.42 | R 4.15 | D 4.38 | N 3.32 | S 2.6 | Q 2.15 | M 2.33 | Y 3.68 | I 2.07 | E 4.84 | P 2.65 | K 4.24 | V 1.78 | F 3.08 | G 2.23 | H 1.91
T9: R 1.69 | D 4.35 | M 3.26 | W 2.2 | F 2.16 | K 2.12 | I 2.19 | Y 2 | Q 2.69 | S 2.38 | N 3.01 | P 4.22 | E 3.2 | H 2.45 | C 2.01 | A 2.52 | V 1.81 | L 2.32 | G 2.71
L10: G 3.79 | E 4.71 | D 4.67 | F 2.75 | A 3.73 | C 3.45 | K 3.11 | H 3.38 | I 2.64
M8: W 1.44 | I 2.22 | R 3.36 | Y 1.94 | Q 3.35 | K 3.66 | P 3.82 | E 4.21 | A 3.75 | N 4.12 | L 2.06 | V 2.54 | T 4.3 | D 4.8 | H 3.95 | S 4.02 | G 3.76 | C 3.33 | F 1.84

Variants of: B2
Test: as above
Conditions: c terminus: a fixed tail appended

Protein stability index: each site, then its substitutions
T19: I 2.2 | R 3.08 | W 2.06 | E 2.68 | K 2.97 | C 2.73 | F 2.52 | Q 3.55 | Y 2.79 | G 3 | L 3.78 | P 1.91 | M 2.5 | D 1.59 | S 3.29 | A 3.16 | N 3.28 | V 2.91 | H 4.49
S20: V 2.44 | N 3.04 | Q 2.53 | K 3.19 | Y 2.8 | M 2.89 | D 2.83 | L 2.79 | A 3.66 | H 2.97 | E 4.15 | P 2.98 | F 2.87 | I 3.08 | R 4.13 | G 2.14 | T 2.37 | C 2.91 | W 3.86
V23: Q 2.87 | R 2.65 | M 2.56 | N 2.01 | E 2.98 | A 2.03 | H 1.97 | F 2.28 | D 1.95 | Y 2.66 | G 1.79 | P 1.65 | L 3.18 | T 2.85 | K 3.04 | W 2.74 | I 2.81 | C 3.17
V18: T 2.93 | W 4.09 | N 4.17 | G 3.24 | M 3.92 | L 3.12 | H 2.95 | P 2.84 | C 1.92 | E 2.2 | R 2.23 | A 3.38 | D 2.55 | Q 2.66 | F 2.48 | S 3.67 | I 2.84 | Y 3.56 | K 3.8
C21: S 3.06 | T 2.88 | V 3.29 | I 2.7 | P 2.13 | A 2.7 | W 2.62 | R 3.31 | Y 2.72 | E 2.83 | M 2.41 | L 3.29 | Q 3.44 | D 2.31 | H 2.2 | N 3.1 | F 3.65 | G 3.12 | K 3.29
G17: Y 1.98 | K 2.64 | H 3.23 | D 3.37 | R 2.88 | C 3.42 | A 2.71 | M 2.55 | Q 2.36 | N 3.28 | S 3.25 | F 2.72 | V 2.91 | W 2.9 | E 2.69 | P 3.45 | T 3.32 | L 3.83 | I 3.43
I16: T 3.23 | S 3.79 | V 2.48 | Y 2.12 | Q 2.94 | W 2.03 | R 2.79
I22: A 2.12 | C 3.54 | N 1.72 | E 2.32 | V 3.37 | T 3.07 | G 2.36 | W 3.04 | Y 2.81 | S 1.45 | K 2.35 | H 2.1 | L 2.08 | P 2.37 | Q 2.15 | D 2.39 | R 1.87 | M 3.35 | F 2.56
I24: N 2.08 | H 1.99 | W 2.92 | F 1.79 | D 2.54 | M 2.45 | A 1.71 | C 1.64 | V 2.2 | G 1.79 | P 2.33 | T 1.6 | K 2.04 | E 2.21 | R 1.74 | L 3.2 | Y 2.55 | Q 1.62 | S 1.94
